Numbering of substitutions follows the chain as printed.
Tests used:
Test in all cases: scFv ELISA
[1] = molecular target: T1, Peptide 4: Biotin-AGGGGSGGGGSGGGGSAAA-Tyr-acid (N-terminal biotin; C-terminal acid)
T1 construct: Control peptide without PC
T1 peptide: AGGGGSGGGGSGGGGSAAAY
Summary of the method: (§1)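 Bound scFv was read as OD450 after HRP–anti-V5 detection, TMB development and HCl stop. PPE with BSA was incubated 1 h at RT on BSA-blocked wells coated overnight at 4° C. with peptide, or on streptavidin wells loaded 1 h with biotinylated PC-peptides at 1 μg/mL.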

[2] = molecular target: T2, Peptide 8: Biotin-AEAAAKEAAAKEAAAKEAAAKAAA-Tyr-acid (N-terminal biotin; C-terminal acid)
T2 construct: Control peptide without PC
T2 peptide: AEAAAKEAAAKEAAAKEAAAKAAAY
Summary of the method: as §1

[3] = molecular target: Peptide 1: Biotin-…-[Tyr(PC)]-acid
[4] = molecular target: BSA (UniProt P02769)
Chain of BSA (P02769 25-607 limits assumed): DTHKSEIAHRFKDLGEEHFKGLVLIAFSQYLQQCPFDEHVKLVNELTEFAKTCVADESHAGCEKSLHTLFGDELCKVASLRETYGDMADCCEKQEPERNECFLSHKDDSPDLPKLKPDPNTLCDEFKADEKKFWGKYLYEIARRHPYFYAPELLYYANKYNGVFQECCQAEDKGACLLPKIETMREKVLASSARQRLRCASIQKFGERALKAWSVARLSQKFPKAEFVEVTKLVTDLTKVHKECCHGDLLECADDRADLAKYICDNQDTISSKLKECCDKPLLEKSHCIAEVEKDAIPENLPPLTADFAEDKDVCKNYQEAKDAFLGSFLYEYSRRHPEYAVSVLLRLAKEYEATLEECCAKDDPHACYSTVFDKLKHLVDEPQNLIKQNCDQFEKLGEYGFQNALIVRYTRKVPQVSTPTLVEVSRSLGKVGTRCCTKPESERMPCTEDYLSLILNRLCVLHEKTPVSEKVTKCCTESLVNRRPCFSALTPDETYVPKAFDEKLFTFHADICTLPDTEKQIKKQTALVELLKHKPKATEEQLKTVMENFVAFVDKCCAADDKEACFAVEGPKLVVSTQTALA

[5] = molecular target: Peptide 5: Biotin-…-[Tyr(PC)]-acid
[6] = molecular target: T3, Peptide 4: Biotin-AGGGGSGGGGSGGGGSAAA-Tyr-acid (N-terminal biotin; C-terminal acid; no PC)
T3 construct: control peptide without PC
T3 peptide: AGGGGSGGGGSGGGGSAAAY
Summary of the method: as §1

[7] = molecular target: T4, Peptide 8: Biotin-AEAAAKEAAAKEAAAKEAAAKAAA-Tyr-acid (N-terminal biotin; C-terminal acid; no PC)
T4 construct: control peptide without PC
T4 peptide: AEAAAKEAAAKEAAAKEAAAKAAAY
Summary of the method: as §1

B1: PcOxP_DB04_D10 (scFv, V domains shown)
VH: EVQLLESGGGLVQPGGSLRLSCAASGFTGSDFYMEWVRQAPGKGLEWVAASRWKANDYTTEYADSVKGRFTISRDNSKNTLYLQMNSLRAEDTAVYYCARDYYGSSYWYFDVWGQGTLVTVSS
VL: DIVMTQSPDSLAVSLGERATINCTASESLYSTKHKVHYLAWYQQKPGQPPKLLIYGASHRYIGVPDRFSGSGSGTDFTLTISSLQAEDVAVYYCAQFYQYPLTFGGGTKVEIK
notes: scFv in periplasmic extract
B1 was tested, and the OD450 [1] was 0.05 OD450, the OD450 [2] was 0.05 OD450 and the OD450 [3] was 1.14 OD450. For the same binder, the OD450 [4] was 0.07 OD450 and the OD450 [5] was 1.35 OD450.

B2: PcOxP_DB04_G08 (scFv, V domains shown)
VH: B1 VH with W53N
VL: B1 VL with T32S, H59N, I62Q, Q99W
notes: scFv in periplasmic extract
With B2 the OD450 [1] was 0.05 OD450, the OD450 [2] was 0.05 OD450 and the OD450 [3] was 1.39 OD450. For the same binder, the OD450 [4] was 0.07 OD450 and the OD450 [5] was 1.67 OD450.

B3: PcOxP_DB04_G01 (scFv, V domains shown)
VH: B1 VH with G29F, F32Y, W53N, A55W, G104L
VL: B1 VL with T24K, E27Q, L29V, Y30L, T32S, H34N, K35N, H37N, H59N
notes: scFv in periplasmic extract
Work on B3 yielded an OD450 [1] of 0.07 OD450, an OD450 [2] of 0.09 OD450 and an OD450 [3] of 0.63 OD450. The OD450 [4] was 0.09 OD450 and the OD450 [5] was 1.39 OD450.

B4: PcOxP_DB04_A12 (scFv, V domains shown)
VH: B1 VH with G29F, F32G, W53N, A55W
VL: DIQMTQSPSSLSASVGDRVTITCTASESLYSSKHKVHYLAWYQQKPGKAPKLLIYGASNRYDGVPSRFSGSGSGTDFTLTISSLQPEDFATYYCAQFYSYPLTFGGGTKVEIK
notes: scFv in periplasmic extract
For B4, the OD450 [6] was 0.07 OD450, the OD450 [7] was 0.06 OD450 and the OD450 [3] was 0.71 OD450. It also gave an OD450 [4] of 0.12 OD450 and an OD450 [5] of 1.38 OD450.

B5: PcOxP_DB03_H08 (scFv, V domains shown)
VH: B1 VH with F27G, G29F, W53N, D57T
VL: B4 VL with A57S, D62I, S99Q
notes: scFv in periplasmic extract
In the case of B5, the OD450 [6] is reported as 0.06 OD450, the OD450 [7] is reported as 0.06 OD450 and the OD450 [3] is reported as 0.91 OD450. The OD450 [4] was 0.12 OD450 and the OD450 [5] was 1.18 OD450.

B6: PcOxP_DB04_D09 (scFv, V domains shown)
VH: B1 VH with G29D, W53N
VL: B1 VL with T24K, A25S, T32S, H34N, H59N, I62S, Q99S
notes: scFv in periplasmic extract
B6 was tested, and the OD450 [1] was 0.05 OD450, the OD450 [2] was 0.08 OD450 and the OD450 [3] was 0.41 OD450. For the same binder, the OD450 [4] was 0.06 OD450 and the OD450 [5] was 0.83 OD450.

B7: PcOxP_DB04_D12 (scFv, V domains shown)
VH: B1 VH with G29F, F32Q, W53N, Y58W
VL: B1 VL with T32S, H59N, Q99S
notes: scFv in periplasmic extract
B7 showed an OD450 [1] of 0.06 OD450, an OD450 [2] of 0.05 OD450 and an OD450 [3] of 0.64 OD450. It also gave an OD450 [4] of 0.08 OD450 and an OD450 [5] of 1.03 OD450.

B8: PcOxP_DB04_D01 (scFv, V domains shown)
VH: B1 VH with G29F, F32Y, W53N, A55G, E61A
VL: B1 VL with T32S, H59Q, Q99S
notes: scFv in periplasmic extract
For B8, the OD450 [1] was 0.06 OD450, the OD450 [2] was 0.06 OD450 and the OD450 [3] was 1.23 OD450. The OD450 [4] was 0.07 OD450 and the OD450 [5] was 1.66 OD450.

B9: PcOxP_DB03_H09 (scFv, V domains shown)
VH: B1 VH with G29F, F32A, W53N, D57S
VL: B4 VL with D62I, Q96E
notes: scFv in periplasmic extract
With B9 the OD450 [6] was 0.06 OD450, the OD450 [7] was 0.06 OD450 and the OD450 [3] was 0.93 OD450. It also gave an OD450 [4] of 0.11 OD450 and an OD450 [5] of 1.25 OD450.

B10: PcOxP_DB03_H07 (scFv, V domains shown)
VH: B1 VH with G29F, F32Y, W53N
VL: B4 VL with Y61D, D62I, A95G
notes: scFv in periplasmic extract
B10 was tested, and the OD450 [6] was 0.05 OD450, the OD450 [7] was 0.05 OD450 and the OD450 [3] was 1.91 OD450. For the same binder, the OD450 [4] was 0.08 OD450 and the OD450 [5] was 1.64 OD450.

B11: PcOxP_DB04_D05 (scFv, V domains shown)
VH: B1 VH with G29F, F32Y, W53N, K54V
VL: B1 VL with E27T, T32S, H59N, Q99S
notes: scFv in periplasmic extract
With B11 the OD450 [1] was 0.05 OD450, the OD450 [2] was 0.06 OD450 and the OD450 [3] was 0.87 OD450. It also gave an OD450 [4] of 0.08 OD450 and an OD450 [5] of 1.27 OD450.

B12: PcOxP_DB04_G09 (scFv, V domains shown)
VH: B1 VH with F27N, G29F, W53N, A55W
VL: B1 VL with T32S, H59N, Q99S
notes: scFv in periplasmic extract
With B12 the OD450 [1] was 0.05 OD450, the OD450 [2] was 0.06 OD450 and the OD450 [3] was 0.48 OD450. It also gave an OD450 [4] of 0.08 OD450 and an OD450 [5] of 1.08 OD450.

B13: PcOxP_DB03_G10 (scFv, V domains shown)
VH: B1 VH with G29F, F32A, W53N
VL: B4 VL with Y61Q, D62I, S99T
notes: scFv in periplasmic extract
B13 gave an OD450 [6] of 0.05 OD450, an OD450 [7] of 0.05 OD450 and an OD450 [3] of 1.8 OD450. The OD450 [4] was 0.11 OD450 and the OD450 [5] was 1.21 OD450.

B14: PcOxP_DB04_F05 (scFv, V domains shown)
VH: B1 VH with G29F, F32Y, W53N
VL: B1 VL with T32S, K33N, A57V, H59N, Q99S
notes: scFv in periplasmic extract
For B14, the OD450 [1] was 0.06 OD450, the OD450 [2] was 0.05 OD450 and the OD450 [3] was 0.76 OD450. The OD450 [4] was 0.07 OD450 and the OD450 [5] was 0.97 OD450.

B15: PcOxP_DB04_F01 (scFv, V domains shown)
VH: B1 VH with G29F, D31P, W53N
VL: B1 VL with T32S, H59N, Q99E
notes: scFv in periplasmic extract
Binder B15 has an OD450 [1] of 0.07 OD450, an OD450 [2] of 0.07 OD450 and an OD450 [3] of 0.56 OD450. The OD450 [4] was 0.09 OD450 and the OD450 [5] was 0.85 OD450.

Source: patent US20250320312A1 (OXITOPE PHARMA B V, published 2025)
